{"source": "patent US20190071487A1", "about": "(Memorial Sloan Kettering, published 2019)", "binders": {"B1": {"name": "Leu39-Val202 soluble HVEM ectodomain polypeptide (receptor)", "chain": "LPSCKEDEYPVGSECCPKCSPGYRVKEACGELTGTVCEPCPPGTYIAHLNGLSKCLQCQMCDPAMGLRASRNCSRTENAVCGCSPGHFCIVQDGDHCAACRAYATSSPGQRVQKGGTESQDTLCQNCPPGTFSPNGTLEECQHQTKCSWLVTKAGAGTSSSHWV"}}, "target": "BTLA (B and T lymphocyte attenuator) on human lymphoma B cells (human, UniProt Q7Z6A9 31-289)", "experiment": "cell-based or functional assay", "data": [{"binder": "B1", "values": [{"measurement": "correlation of percent pSyk inhibition by solHVEM with BTLA surface expression (ratio of MFI), ten primary human FL B cell samples", "result": 0.697, "unit": "r"}]}]}
